Test results from article PMC10109501 (PLOS Pathogens, 2023).

Biological target: SARS-CoV-2 original 2019-CoV Spike, prefusion trimeric ectodomain (2P, GSAS, T4 foldon) (SARS-CoV-2, UniProt P0DTC2 14-1213)
Experiment: BLI
Settings: both partners purified

B1: cat ACE2-Fc (residues 19-615, mouse IgG2a Fc fusion) (Fc fusion)
chain: STTEELAKTFLEKFNHEAEELSYQSSLASWNYNTNITDENVQKMNEAGAKWSAFYEEQSKLAKTYPLAEIHNTTVKRQLQALQQSGSSVLSADKSQRLNTILNAMSTIYSTGKACNPNNPQECLLLEPGLDDIMENSKDYNERLWAWEGWRAEVGKQLRPLYEEYVALKNEMARANNYEDYGDYWRGDYEEEWTDGYNYSRSQLIKDVEHTFTQIKPLYQHLHAYVRAKLMDTYPSRISPTGCLPAHLLGDMWGRFWTNLYPLTVPFGQKPNIDVTDAMVNQSWDARRIFKEAEKFFVSVGLPNMTQGFWENSMLTEPGDSRKVVCHPTAWDLGKGDFRIKMCTKVTMDDFLTAHHEMGHIQYDMAYAVQPFLLRNGANEGFHEAVGEIMSLSAATPNHLKTIGLLSPGFSEDSETEINFLLKQALTIVGTLPFTYMLEKWRWMVFKGEIPKEQWMQKWWEMKREIVGVVEPVPHDETYCDPASLFHVANDYSFIRYYTRTIYQFQFQEALCRIAKHEGPLHKCDISNSSEAGKKLLQMLTLGKSKPWTLALEHVVGEKKMNVTPLLKYFEPLFTWLKEQNRNSFVGWNTDWRPYAD
B1: binds.
